In article PMC2953525, “Subtle Alterations in PCNA-Partner Interactions Severely Impair DNA Replication and Repair” (PLoS Biology, 2010):

Legend:
[1] = test system: Msh6; assay: Yeast two hybrid (Y2H) analysis of PCNA-partner interaction; format: binding; settings: YRG2 strain, growth on selective agar plates lacking histidine; growth similar to WT PCNA denoted as 1
Procedure: (§1) For the Y2H assay, we used the YRG2 host strain, shown to be highly efficient in coupling the strength of protein-protein interactions with growth on media lacking histidine. Selected PCNA mutants were characterized for their ability to bind each of 12 main PCNA partners to obtain specificity profiles (Table 1, Table S1, and Figures S4–S5). […] However, in some cases a strong trade-off between the bindings of different partners was observed.
(§2) Y2H analysis was performed using the Yeast Two Hybrid Phagemid vector kit (Stratagene), following the manufacturer's instructions. The pAD-PCNA-WT/mutant plasmids were used as bait while plasmids encoding 12 different PCNA partners (Table 1 and Table S1) were used as prey. The YRG2 host strain (Stratagene) was cotransformed with pAD-PCNA WT/mutant and pBD-partner plasmids in all possible combinations using the LiAC method. Single transformants were grown in liquid SC-Leu-Trp to O.D600 10, washed twice with DDW, and diluted to an initial OD600 of 0.3. A series of 10-fold serial dilutions was then spotted onto selective SC-Leu-Trp-His plates and incubated at 30°C for 3 d. For quantitative Y2H, the generation time of the indicated mutants and their respective partners were calculated from their growth curves in liquid SC-Leu-Trp-His media. Cells were grown overnight in SC-Leu-Trp, washed twice with ddH2O, and diluted by a factor of 1∶50 into 10 ml of pre-warmed SC-Leu-Trp-His. O.D600 measurements of the cultures were taken at the indicated time; the generation time (τ) was calculated from the growth curves according to the equation ODt = OD0×2^t/τ. The generation time calculated for each culture is an average of at least 3 independent experiments.

[2] = test system: Pol32; assay: as above; format: binding; settings: YRG2 strain, growth on selective agar plates lacking histidine; growth similar to WT PCNA denoted as 1
Procedure: as §1, §2

[3] = test system: Rad27; assay: as above; format: binding; settings: footnote c: generation time in liquid selective media lacking histidine relative to cells expressing WT PCNA; average of at least 3 independent experiments
Procedure: as §1, §2

[4] = test system: Rad30; assay: as above; format: binding; settings: YRG2 strain, growth on selective agar plates lacking histidine; growth similar to WT PCNA denoted as 1
Procedure: as §1, §2

[5] = test system: Ung1; assay: as above; format: binding; settings: YRG2 strain, growth on selective agar plates lacking histidine; growth similar to WT PCNA denoted as 1
Procedure: as §1, §2

[6] = test system: Apn2; assay: as above; format: binding; set-up: key: ++: major increase in growth; +: moderate increase in growth; similar growth as the WT PCNA-expressing cells; -: minor decrease in growth; --: moderate decrease in growth; ---: major decrease in growth; settings: spotting onto selective agar plates; PCNA fused to AD, partner to BD
Procedure: as §2
(§3) Table S1: Yeast two hybrid analysis of binding of selected PCNA mutants with seven additional partners not described in Table 1 of the main text. […]
(§4) pol30-Rad30E2 WT WT WT WT WT WT - pol30-Rad30E9 WT WT WT WT WT WT WT pol30-Rad27E6 WT WT WT WT + WT WT pol30-Rad27E31 WT WT WT WT + WT WT pol30-Rad27L1 WT -- WT WT -- WT WT pol30-Rad27L2 WT -- WT WT -- WT WT pol30-Pol32E5 WT WT WT WT WT WT WT pol30-Pol32E9 - WT WT WT WT WT WT pol30-Msh6E2 WT WT + WT WT WT WT pol30-Msh6E6 WT WT ++ WT WT WT WT pol30-Ung1E3 WT - WT WT WT WT WT pol30-79 --- --- --- - --- --- --- a PCNA mutants with enhanced affinities for the different target partners (see Table 1, text). b PCNA mutants were fused to the activating domain (AD), while the different partners were fused to the DNA-binding domain (BD). The growth of the resulting Y2H strains was compared to the growth of the WT PCNA-expressing strain following spotting onto selective agar plates (see Material and Methods). Growth rates on the agar plates were scored and tabulated as follows: ++ major increase in growth; + moderate increase in growth; WT-similar growth as the WT PCNA-expressing cells; - minor decrease in growth; -- moderate decrease in growth; --- major decrease in growth. ND-Not determined.

[7] = test system: Cac1; assay: as above; format: binding; set-up: key: ++: major increase in growth; +: moderate increase in growth; similar growth as the WT PCNA-expressing cells; -: minor decrease in growth; --: moderate decrease in growth; ---: major decrease in growth; settings: spotting onto selective agar plates; PCNA fused to AD, partner to BD
Procedure: as §2, §3, §4

[8] = test system: Cdc9; assay: as above; format: binding; set-up: key: ++: major increase in growth; +: moderate increase in growth; similar growth as the WT PCNA-expressing cells; -: minor decrease in growth; --: moderate decrease in growth; ---: major decrease in growth; settings: spotting onto selective agar plates; PCNA fused to AD, partner to BD
Procedure: as §2, §3, §4

[9] = test system: Eco1; assay: as above; format: binding; set-up: key: ++: major increase in growth; +: moderate increase in growth; similar growth as the WT PCNA-expressing cells; -: minor decrease in growth; --: moderate decrease in growth; ---: major decrease in growth; settings: spotting onto selective agar plates; PCNA fused to AD, partner to BD
Procedure: as §2, §3, §4

[10] = test system: Msh3; assay: as above; format: binding; set-up: key: ++: major increase in growth; +: moderate increase in growth; similar growth as the WT PCNA-expressing cells; -: minor decrease in growth; --: moderate decrease in growth; ---: major decrease in growth; settings: spotting onto selective agar plates; PCNA fused to AD, partner to BD
Procedure: as §2, §3, §4

[11] = test system: Rfc1; assay: as above; format: binding; set-up: key: ++: major increase in growth; +: moderate increase in growth; similar growth as the WT PCNA-expressing cells; -: minor decrease in growth; --: moderate decrease in growth; ---: major decrease in growth; settings: spotting onto selective agar plates; PCNA fused to AD, partner to BD
Procedure: as §2, §3, §4

[12] = test system: Rrm3; assay: as above; format: binding; set-up: key: ++: major increase in growth; +: moderate increase in growth; similar growth as the WT PCNA-expressing cells; -: minor decrease in growth; --: moderate decrease in growth; ---: major decrease in growth; settings: spotting onto selective agar plates; PCNA fused to AD, partner to BD
Procedure: as §2, §3, §4

[13] = test system: yeast strains; assay: Viability of haploid strains with mutant as sole source of PCNA (plasmid shuffling, 5FOA); format: cell-based; settings: for viability of strain containing the mutant as the sole source of PCNA: plasmid shuffling, selection on 5FOA; for effect of rad27 deletion on lethality of the mutant strain: rad27-deleted background, 5-FOA
Description: To study the in vivo ability of PCNA mutants to promote DNA replication and repair in yeast, we adopted a plasmid shuffling method to create haploid yeast strains carrying each mutant as the sole source of PCNA (see Materials and Methods). This approach allowed us to identify PCNA mutants leading to cell death, indicating their inability to support essential DNA replication processes (Figure 5A). […] To verify that the replication defects in the mutant strains (Figure 5) are not due to reduced expression levels of the PCNA proteins, we confirmed the expression level of PCNA using western blot analysis and observed similar expression levels of all PCNA mutants, relative to WT PCNA (Figure S7).
Figure 5 In vivo phenotypic analysis of PCNA mutants. (A) Non-viable strains containing PCNA mutants with increased binding affinity for Rad27 as the sole version of PCNA. Yeast strains containing WT PCNA expressed from a URA3 plasmid and mutant PCNA genes expressed from a LEU2 plasmid are viable (middle). Upon selection for loss of WT PCNA using 5-floororotic acid (5FOA), PCNA mutant strains are non-viable (right). (B) MMS (middle) and HU (right) sensitivity of strains containing PCNA mutants with increased binding affinity for Rad27, Pol32, Rad30, Msh6, and Ung1 and strains containing WT PCNA in which the same partners were deleted. For binding characterization and sequences of the mutants, see Table 1.
Novel haploids containing PCNA mutants were generated using the plasmid shuffling method. Briefly, a pol30::KanMX magic marker heterozygote diploid strain BY4743 (Open Biosystem) was transformed with plasmid pRS316-POL30. Following dissection of the diploid, a haploid containing the CAN+ gene and plasmid pRS316-POL30 as a sole source of PCNA was generated. This host strain was transformed with selected pRS315-pol30 mutants, plated on SC-Ura-Leu plates, followed by replica plating to SC-Leu+5FOA plates. Haploids, containing PCNA mutants as a sole source, were further verified by plating on either SC-Leu or SC-Ura plates. For testing selected PCNA mutants, a haploid containing rad27::HYG, rad30::HYG, pol32::HYG, msh6::HYG, or ung1::HYG were generated using plasmid pAG32 by conventional genetic approaches. Growth of the PCNA mutant strains in the presence of 120 mM HU (Toronto Research Chemicals) or 0.02% MMS (Sigma) was performed as described. To examine the effects of partner overexpression on pol30 mutant strains, these strains were transformed with various plasmids containing GST-tagged PCNA partner encoding genes under the control of a GAL1/10 inducible promoter, as previously described. Overnight cultures were plated in serial dilutions on SC-Ura containing either glucose or galactose with or without DNA-damaging agents, as described above.

B1: pol30-Rad27E31: PCNA mutant evolved for Rad27, IDCL sequence DGDYDVLKIREL (protein)
chain: MLEAKFEEASLFKRIIDGFKDCVQLVNFQCKEDGIIAQAVDDSRVLLVSLEIGVEAFQEYRCDHPVTLGMDLTSLSKILRCGNNTDTLTLIADNTPDSIILLFEDTKKDRIAEYSLKLMDGDYDVLKIRELQYDSTLSLPSSEFSKIVRDLSQLSDSINIMITKETIKFVADGDIGSGSVIIKPFVDMEHPETSIKLEMDQPVDLTFGAKYLLDIIKGSSLSDRVGIRLSSEAPALFQFDLKSGFLQFFLAPKFNDEE
modifications: left off: Gal4 activation domain, end not stated, kept
- Binding of PCNA Mutants to Target Partners: Msh6 (Y2H) [1]: 1
- Binding of PCNA Mutants to Target Partners: Pol32 (Y2H) [2]: 1
- Binding of PCNA Mutants to Target Partners: Rad27, fold increase or decrease (quantitative Y2H) [3]: 1.5 ^c fold
- Binding of PCNA Mutants to Target Partners: Rad30 (Y2H) [4]: 1
- Binding of PCNA Mutants to Target Partners: Ung1 (Y2H) [5]: 1
- Y2H growth relative to WT PCNA-expressing strain: Apn2 [6]: WT
- Y2H growth relative to WT PCNA-expressing strain: Cac1 [7]: +
- Y2H growth relative to WT PCNA-expressing strain: Cdc9 [8]: WT
- Y2H growth relative to WT PCNA-expressing strain: Eco1 [9]: WT
- Y2H growth relative to WT PCNA-expressing strain: Msh3 [10]: WT
- Y2H growth relative to WT PCNA-expressing strain: Rfc1 [11]: WT
- Y2H growth relative to WT PCNA-expressing strain: Rrm3 [12]: WT

B2: pol30-Rad27L1: PCNA mutant evolved for Rad27, two-residue deletion, IDCL sequence D––VDILKIGEL (protein)
chain: MLEAKFEEASLFKRIIDGFKDCVQLVNFQCKEDGIIAQAVDDSRVLLVSLEIGVEAFQEYRCDHPVTLGMDLTSLSKILRCGNNTDTLTLIADNTPDSIILLFEDTKKDRIAEYSLKLMDVDILKIGELQYDSTLSLPSSEFSKIVRDLSQLSDSINIMITKETIKFVADGDIGSGSVIIKPFVDMEHPETSIKLEMDQPVDLTFGAKYLLDIIKGSSLSDRVGIRLSSEAPALFQFDLKSGFLQFFLAPKFNDEE
modifications: left off: Gal4 activation domain, end not stated, kept
- Binding of PCNA Mutants to Target Partners: Msh6 (Y2H) [1]: 1
- Binding of PCNA Mutants to Target Partners: Pol32 (Y2H) [2]: 1
- Binding of PCNA Mutants to Target Partners: Rad27, fold increase or decrease (quantitative Y2H) [3]: 1.7 ^c fold
- Binding of PCNA Mutants to Target Partners: Ung1 (Y2H) [5]: 1
- Y2H growth relative to WT PCNA-expressing strain: Apn2 [6]: WT
- Y2H growth relative to WT PCNA-expressing strain: Cac1 [7]: --
- Y2H growth relative to WT PCNA-expressing strain: Cdc9 [8]: WT
- Y2H growth relative to WT PCNA-expressing strain: Eco1 [9]: --
- Y2H growth relative to WT PCNA-expressing strain: Msh3 [10]: WT
- Y2H growth relative to WT PCNA-expressing strain: Rfc1 [11]: WT
- Y2H growth relative to WT PCNA-expressing strain: Rrm3 [12]: WT
- viability of strain containing the mutant as the sole source of PCNA [13]: lethality
- effect of rad27 deletion on lethality of the mutant strain [13]: suppressed the lethality

B3: pol30-Rad27L2: PCNA mutant evolved for Rad27, two-residue deletion, IDCL sequence D––VDTLKITEL (protein)
chain: MLEAKFEEASLFKRIIDGFKDCVQLVNFQCKEDGIIAQAVDDSRVLLVSLEIGVEAFQEYRCDHPVTLGMDLTSLSKILRCGNNTDTLTLIADNTPDSIILLFEDTKKDRIAEYSLKLMDVDTLKITELQYDSTLSLPSSEFSKIVRDLSQLSDSINIMITKETIKFVADGDIGSGSVIIKPFVDMEHPETSIKLEMDQPVDLTFGAKYLLDIIKGSSLSDRVGIRLSSEAPALFQFDLKSGFLQFFLAPKFNDEE
modifications: left off: Gal4 activation domain, end not stated, kept
- Binding of PCNA Mutants to Target Partners: Msh6 (Y2H) [1]: 1
- Binding of PCNA Mutants to Target Partners: Pol32 (Y2H) [2]: 1
- Binding of PCNA Mutants to Target Partners: Rad27, fold increase or decrease (quantitative Y2H) [3]: 1.5 ^c fold
- Binding of PCNA Mutants to Target Partners: Ung1 (Y2H) [5]: 1
- Y2H growth relative to WT PCNA-expressing strain: Apn2 [6]: WT
- Y2H growth relative to WT PCNA-expressing strain: Cac1 [7]: --
- Y2H growth relative to WT PCNA-expressing strain: Cdc9 [8]: WT
- Y2H growth relative to WT PCNA-expressing strain: Eco1 [9]: --
- Y2H growth relative to WT PCNA-expressing strain: Msh3 [10]: WT
- Y2H growth relative to WT PCNA-expressing strain: Rfc1 [11]: WT
- Y2H growth relative to WT PCNA-expressing strain: Rrm3 [12]: WT
- viability of strain containing the mutant as the sole source of PCNA [13]: lethality
- effect of rad27 deletion on lethality of the mutant strain [13]: suppressed the lethality
